In patent US20190194326A1:

Tests used:
[1] = target: CD4 on chimp PBMC cells (chimp) (UniProt P16004); assay: flow cytometry, chimp PBMC X301, single label control Leu3a-PE
[2] = target: CD4 on chimp PBMC cells (chimp) (UniProt P16004); assay: flow cytometry, chimp PBMC X282; 1st B4 binding, 2nd Leu3a exposure; Leu3a+ B4- population; competitor B4 pre-bound
[3] = target: CD4 on chimp PBMC cells (chimp) (UniProt P16004); assay: flow cytometry, chimp PBMC X282, single label control Leu3a-PE
[4] = target: CD4 on chimp PBMC cells (chimp) (UniProt P16004); assay: flow cytometry, chimp PBMC X301; 1st B4 binding, 2nd Leu3a exposure; double stained population; competitor B4 pre-bound
[5] = target: CD4 on chimp PBMC cells (chimp) (UniProt P16004); assay: flow cytometry, chimp PBMC X282; 1st B4 binding, 2nd Leu3a exposure; double stained population; competitor B4 pre-bound
[6] = target: CD4 on chimp PBMC cells (chimp) (UniProt P16004); assay: flow cytometry, chimp PBMC X282; 1st Leu3a binding, 2nd B4 exposure; Leu3a+ B4- population
[7] = target: CD4 on chimp PBMC cells (chimp) (UniProt P16004); assay: flow cytometry, chimp PBMC X301; 1st B4 binding, 2nd Leu3a exposure; Leu3a+ B4- population; competitor B4 pre-bound
[8] = target: CD4 on chimp PBMC cells (chimp) (UniProt P16004); assay: flow cytometry, chimp PBMC X301; 1st Leu3a binding, 2nd B4 exposure; Leu3a+ B4- population

Question: Which percent positive PBMC [1] does the source give for Leu3a (antibody) here?
Answer: The percent positive PBMC was 44%.

Question: And the percent positive PBMC [2]?
Answer: The percent positive PBMC was 0%.

Question: What about the percent positive PBMC [3] of the same substance?
Answer: Its percent positive PBMC is 25.5%.

Question: What about the percent positive PBMC [4] of the same substance?
Answer: The percent positive PBMC was 3%.

Question: What about the percent positive PBMC [5] of the same substance?
Answer: The percent positive PBMC was 1.2%.

Question: What about the percent positive PBMC [6] of the same substance?
Answer: The percent positive PBMC was 0.1%.

Question: And the percent positive PBMC [7]?
Answer: The percent positive PBMC was 0%.

Question: What about the percent positive PBMC [8] of the same substance?
Answer: Its percent positive PBMC is 0.3%.
